# Laboratory results as given in patent KR20170021349A, “다양한 질병의 치료를 위한 jnk 신호 전달 경로의 세포 투과성 펩타이드 억제자의 새로운 용도” (자이겐 인플라메이션 리미티드, priority 2014, dated 2017).
# Tests used:
# [1] = test system: primary mouse cortical neurons; experiment: JNK activation in cortical neurons under H2O2 oxidative stress; type: cell-based; conditions: 5 μM pre-treatment; 1 mM H2O2 15 min
# [2] = Ocular MTD study, subconjunctival; type: in vivo, rat
# [3] = test system: Huh7 tumours in nude mice; experiment: Huh7 human liver cancer xenograft; type: in vivo, mouse; conditions: 5 mg/kg i.p. twice weekly, 4 weeks
# Brown Norway rats = experiment: STZ diabetic retinopathy prevention, intravitreal, ERG; type: in vivo, rat
substance,measurement,setting,value
NH2-DQSRPVQPFLNLTTPRKPRPPRRRQRRKKRG-COOH (H-DQSRPVQPFLNLTTPRKPRPPRRRQRRKKRG-OH; also: D-amino acids (positions not given here)) [XG-102],JNK activity (pJNK/JNK) induced by H2O2,[1],JNK 활성을 억제하였다
same,NOAEL,[2],~20 µg
same,tumour growth,[3],종양 성장을 현저하게 감소시켰다
same,OP#1 scotopic single flash 0dB amplitude,"Brown Norway rats; 0.2 μg/eye IVT d1,8,15, day 6",49 μV
same,OP#2 scotopic single flash 0dB amplitude,"Brown Norway rats; 0.2 μg/eye, day 6",98 μV
same,OP#3 scotopic single flash 0dB amplitude,"Brown Norway rats; 0.2 μg/eye, day 6",219 μV
same,OP#4 scotopic single flash 0dB amplitude,"Brown Norway rats; 0.2 μg/eye, day 6",147 μV
same,photopic 1Hz flicker A-wave amplitude,"Brown Norway rats; 0.2 μg/eye, day 6",-3 μV
same,photopic 1Hz flicker B-wave amplitude,"Brown Norway rats; 0.2 μg/eye, day 6",63 μV
same,photopic 29Hz flicker B-wave amplitude,"Brown Norway rats; 0.2 μg/eye, day 6",9 μV
same,scotopic single flash 0dB A-wave amplitude,"Brown Norway rats; 0.2 μg/eye, day 6",-209 μV
same,scotopic single flash 0dB B-wave amplitude,"Brown Norway rats; 0.2 μg/eye, day 6",421 μV
same,scotopic single flash -10dB A-wave amplitude,"Brown Norway rats; 0.2 μg/eye, day 6",-151 μV
same,scotopic single flash -30dB B-wave amplitude,"Brown Norway rats; 0.2 μg/eye, day 6",269 μV
same,OP#1 scotopic single flash 0dB amplitude,"Brown Norway rats; 0.2 μg/eye, day 13",37 μV
same,OP#2 scotopic single flash 0dB amplitude,"Brown Norway rats; 0.2 μg/eye, day 13",63 μV
same,OP#3 scotopic single flash 0dB amplitude,"Brown Norway rats; 0.2 μg/eye, day 13",165 μV
same,OP#4 scotopic single flash 0dB amplitude,"Brown Norway rats; 0.2 μg/eye, day 13",129 μV
same,photopic 1Hz flicker A-wave amplitude,"Brown Norway rats; 0.2 μg/eye, day 13",-4 μV
same,photopic 1Hz flicker B-wave amplitude,"Brown Norway rats; 0.2 μg/eye, day 13",71 μV
same,photopic 29Hz flicker B-wave amplitude,"Brown Norway rats; 0.2 μg/eye, day 13",14 μV
same,scotopic single flash 0dB A-wave amplitude,"Brown Norway rats; 0.2 μg/eye, day 13",-203 μV
same,scotopic single flash 0dB B-wave amplitude,"Brown Norway rats; 0.2 μg/eye, day 13",442 μV
same,scotopic single flash -10dB A-wave amplitude,"Brown Norway rats; 0.2 μg/eye, day 13",-128 μV
same,scotopic single flash -30dB B-wave amplitude,"Brown Norway rats; 0.2 μg/eye, day 13",270 μV
same,OP#1 scotopic single flash 0dB amplitude,"Brown Norway rats; 0.2 μg/eye, day 20",36 μV
same,OP#2 scotopic single flash 0dB amplitude,"Brown Norway rats; 0.2 μg/eye, day 20",70 μV
same,OP#3 scotopic single flash 0dB amplitude,"Brown Norway rats; 0.2 μg/eye, day 20",164 μV
same,OP#4 scotopic single flash 0dB amplitude,"Brown Norway rats; 0.2 μg/eye, day 20",116 μV
same,photopic 1Hz flicker A-wave amplitude,"Brown Norway rats; 0.2 μg/eye, day 20",-2 μV
same,photopic 1Hz flicker B-wave amplitude,"Brown Norway rats; 0.2 μg/eye, day 20",70 μV
same,photopic 29Hz flicker B-wave amplitude,"Brown Norway rats; 0.2 μg/eye, day 20",10 μV
same,scotopic single flash 0dB A-wave amplitude,"Brown Norway rats; 0.2 μg/eye, day 20",-198 μV
same,scotopic single flash 0dB B-wave amplitude,"Brown Norway rats; 0.2 μg/eye, day 20",433 μV
same,scotopic single flash -10dB A-wave amplitude,"Brown Norway rats; 0.2 μg/eye, day 20",-129 μV
same,scotopic single flash -30dB B-wave amplitude,"Brown Norway rats; 0.2 μg/eye, day 20",240 μV
same,OP#1 scotopic single flash 0dB amplitude,"Brown Norway rats; 2 μg/eye IVT d1,8,15, day 6",40 μV
same,OP#2 scotopic single flash 0dB amplitude,"Brown Norway rats; 2 μg/eye, day 6",93 μV
same,OP#3 scotopic single flash 0dB amplitude,"Brown Norway rats; 2 μg/eye, day 6",239 μV
same,OP#4 scotopic single flash 0dB amplitude,"Brown Norway rats; 2 μg/eye, day 6",182 μV
same,photopic 1Hz flicker A-wave amplitude,"Brown Norway rats; 2 μg/eye, day 6",-3 μV
same,photopic 1Hz flicker B-wave amplitude,"Brown Norway rats; 2 μg/eye, day 6",69 μV
same,photopic 29Hz flicker B-wave amplitude,"Brown Norway rats; 2 μg/eye, day 6",11 μV
same,scotopic single flash 0dB A-wave amplitude,"Brown Norway rats; 2 μg/eye, day 6",-205 μV
same,scotopic single flash 0dB B-wave amplitude,"Brown Norway rats; 2 μg/eye, day 6",383 μV
same,scotopic single flash -10dB A-wave amplitude,"Brown Norway rats; 2 μg/eye, day 6",-124 μV
same,scotopic single flash -30dB B-wave amplitude,"Brown Norway rats; 2 μg/eye, day 6",270 μV
same,OP#1 scotopic single flash 0dB amplitude,"Brown Norway rats; 2 μg/eye, day 13",33 μV
same,OP#2 scotopic single flash 0dB amplitude,"Brown Norway rats; 2 μg/eye, day 13",92 μV
same,OP#3 scotopic single flash 0dB amplitude,"Brown Norway rats; 2 μg/eye, day 13",219 μV
same,OP#4 scotopic single flash 0dB amplitude,"Brown Norway rats; 2 μg/eye, day 13",160 μV
same,photopic 1Hz flicker A-wave amplitude,"Brown Norway rats; 2 μg/eye, day 13",-6 μV
same,photopic 1Hz flicker B-wave amplitude,"Brown Norway rats; 2 μg/eye, day 13",91 μV
same,photopic 29Hz flicker B-wave amplitude,"Brown Norway rats; 2 μg/eye, day 13",17 μV
same,scotopic single flash 0dB A-wave amplitude,"Brown Norway rats; 2 μg/eye, day 13",-261 μV
same,scotopic single flash 0dB B-wave amplitude,"Brown Norway rats; 2 μg/eye, day 13",524 μV
same,scotopic single flash -10dB A-wave amplitude,"Brown Norway rats; 2 μg/eye, day 13",-152 μV
same,scotopic single flash -30dB B-wave amplitude,"Brown Norway rats; 2 μg/eye, day 13",292 μV
same,OP#1 scotopic single flash 0dB amplitude,"Brown Norway rats; 2 μg/eye, day 20",26 μV
same,OP#2 scotopic single flash 0dB amplitude,"Brown Norway rats; 2 μg/eye, day 20",49 μV
same,OP#3 scotopic single flash 0dB amplitude,"Brown Norway rats; 2 μg/eye, day 20",137 μV
same,OP#4 scotopic single flash 0dB amplitude,"Brown Norway rats; 2 μg/eye, day 20",130 μV
